Here are results for 2 molecules from US6852686B2, “Methods for ameliorating icthyosiform skin diseases” (The United States of America as represented by the …, priority 1999, dated 2005).

Series [1] has as its target T1, TGase 1 (Homo sapiens, UniProt P22735).
T1 construct: Recombinant full-length human TGase 1 and TGase 3 enzymes were expressed in Sf9 cells by the BaculoGold system; made in house; host or cells: Sf9 insect cells, BaculoGold baculovirus system, pVL1392 vector
T1 sequence (P22735 1-817): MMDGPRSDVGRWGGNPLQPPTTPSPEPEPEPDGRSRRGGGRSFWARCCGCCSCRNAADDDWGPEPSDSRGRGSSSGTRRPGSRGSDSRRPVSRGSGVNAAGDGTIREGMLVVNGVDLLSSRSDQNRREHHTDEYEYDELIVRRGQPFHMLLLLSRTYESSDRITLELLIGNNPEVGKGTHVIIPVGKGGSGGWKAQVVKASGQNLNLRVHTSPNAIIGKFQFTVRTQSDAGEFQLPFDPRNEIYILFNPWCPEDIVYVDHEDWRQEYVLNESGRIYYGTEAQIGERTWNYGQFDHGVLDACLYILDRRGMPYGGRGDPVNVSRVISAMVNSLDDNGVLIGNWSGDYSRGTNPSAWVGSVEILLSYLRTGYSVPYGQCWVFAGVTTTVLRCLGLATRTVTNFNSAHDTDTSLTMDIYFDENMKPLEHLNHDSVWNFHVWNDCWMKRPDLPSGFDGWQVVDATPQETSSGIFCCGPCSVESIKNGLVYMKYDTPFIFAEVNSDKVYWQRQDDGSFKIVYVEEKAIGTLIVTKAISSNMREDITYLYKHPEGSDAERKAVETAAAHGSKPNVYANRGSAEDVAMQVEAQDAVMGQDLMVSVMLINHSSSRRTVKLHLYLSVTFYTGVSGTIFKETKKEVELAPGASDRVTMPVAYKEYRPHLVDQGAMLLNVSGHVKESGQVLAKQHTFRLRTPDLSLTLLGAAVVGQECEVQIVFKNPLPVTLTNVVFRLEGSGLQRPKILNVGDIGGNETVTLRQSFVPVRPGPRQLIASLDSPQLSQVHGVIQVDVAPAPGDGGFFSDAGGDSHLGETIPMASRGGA
Briefly: Free Ca++ dependence of 14C-putrescine incorporation by TGase 1. It counts as biochemical. As for the experimental part:
Activity values are given as percent of the values measured at 1 mM Ca^++. […] Points represent the means±s.d. of three independent measurements.
The optimal Ca^++ ion concentration required for the TGase 1 reaction has not been measured for any substrate. Standard in vitro solution assays contain 1-5 mM Ca^++. (Folk, J. E. and J. S. Finlayson, Adv. Protein Chem., 31: 1-133 (1977); Folk, J. E., Adv. Enzymol. Related Areas Mol. Biol., 54: 1-56 (1983); and Lorand, L. S. M. Conrad, Mol. Cell Biochem., 58: 9-35 (1984)). […] (FIG. 6, open symbols). […] (FIG. 2).
(§1) The Ca^++ concentrations in the μM range were set by buffering free Ca^++ with chelators The desired Ca^++/chelator ratios were calculated by the WinMaxC 1.7 computer program (Bers, et al., Methods in Cell Biology Vol 40: A Practical Guide to the Study of Ca^2+ in Living Cells, Nuccitelli, R., ed., pp. 1-327 (1994), herein expressly incorporated by reference in its entirety), and were made by adding the required amounts of 1 M CaCl2 to 0.2 M stock solutions of the following chelators at pH 8.0. Final chelator concentrations in the samples were 10 mM in all cases. Sodium citrate was the chelator for the 20-500 μM Ca^++ range; sodium nitrilotriacetate for the 1-20 μM Ca^++ range; and sodium 1,2-bis(aminophenoxy)ethane-N,N,N′,N′ tetraacetate for the 0.1-1 μM Ca^++ range.

Series [2] deals with synthetic lipid vesicles (SLV). The series is described as follows: Membrane association (binding) to synthetic lipid vesicles, SLV pelleted by ultracentrifugation. As for the experimental part:
Mixtures of dipalmitoyl-phosphatidylcholine, cholesterol, dipalmitoyl-phosphatidylserine (PS) and other lipids where indicated (all from Sigma, St. Louis, Mo.) were made in chloroform-methanol (95:5). In all cases, the mixtures contained 30% cholesterol. When the amounts of PS or other individual components were varied, phosphatidylcholine was added to make the mixture to 100%. Mixtures were made in 0.5 ml and contained 10 μmol of total lipids. The solvent was flushed away under a stream of N2, dried further under high vacuum for 4 h and then resuspended by vortexing in 0.5 ml of a buffer containing 50 mM Tris-Cl (pH 8.0), 100 mM NaCl, 3 mM NaN3, 5 mM DTT, and 200 mM sucrose. The mixture was sonicated on ice five times each for 1 min using a Branson 250 sonifier with micro probe tip, and allowed to stand at 23° C. to facilitate assembly of SLV. After 1 h the SLV were diluted with 0.5 ml of the above buffer without sucrose, and 200 μl aliquots were centrifuged at 100,000× g for 30 min in a Beckman Airfuge using the A-10 rotor. The top 175 μl was removed, and the pellet resuspended in another 150 μl of sucrose-free buffer. The final stock concentration was 11 μmol/ml.
In all cases, the buffer contained 50 mM Tris-HCl (pH 8.0), 100 mM NaCl, 1 mM DTT, 3 mM NaN3, and other additives where noted. Some mixtures also contained 1 mM CaCl2 or 2 mM EDTA. After mixing, the samples were centrifuged for 45 min at 100,000× g, and the protein content from 50 μl of supernatant was determined by amino acid analysis after acid hydrolysis. Data were usually not corrected for loss of SLV lipids, as in control experiments, cumulated losses were <4% as assayed by ^14C-phosphatidylcholine tracer, and thus neglected from the calculations.
as §1

In series [3] the target is T1, TGase 1. The series is described as follows: Kinetic parameters of 14C-putrescine incorporation by TGase 1. The class given is biochemical. The following applies: for Km: KM pertains to the protein substrate, read-out: KM(app); for Vmax / kcat(putrescine): putrescine incorporation, 37° C. The source says: One possibility is that this KM increase is due to the reduced diffusional mobility of the enzyme after attachment to the SLV. […] (Table 1). One reason for this is that a reduced access to many of the Gln residues occurs after anchorage of the enzyme. On the other hand, the Vmax value for the recombinant SPR2 substrate was almost unchanged.
The reaction rates were quantified by measuring the incorporated radioactivity as before (Thomas, M. V., Cellular Calcium, McCormack, et al., eds., pp. 115-123 (1991), herein expressly incorporated by reference in its entirety). Kinetic constants were obtained using the curve-fitting and regression analysis Sigmaplot 4.0 software. All data points represent the means of three measurements, each performed in triplicate.

Series [4] deals with T1, TGase 1. The series is described as follows: 14C-putrescine labeling of involucrin Gln residues by TGase 1. The class given is biochemical. How it is done: This was set far below saturating amounts on SLV in order to ensure that all enzyme was bound to the SLV.
After 4 h incubation at 37° C., the reactions were stopped by addition of EDTA to 10 mM and 100 μl 20% SDS, and vortexed. This mixture was precipitated and washed three times with acetone-triethylamine-acetic acid (90:5:5) (Konigsberg, W. H. and L. Henderson, Meth. Enzymol., 91: […] (1983), herein expressly incorporated by reference in its entirety) to remove the SDS and the lipids. After repeated washings with acetone, the pellet was redissolved in a buffer of 50 mM Tris-Cl (pH 7.5), and digested for 16 h at 37° C. with 2% (by weight) of modified trypsin (Boehringer Mannheim, Indianapolis, Ind.). Aliquots of 20 μg were resolved on a 250×4.6 mm Beckman Ultrasphere C18 HPLC column. Separated peaks were analyzed for radioactivity and peaks containing activity were attached to a solid support for sequencing as before (Steinert, P. M. and L. N. Marekov, J. Biol. Chem., 270: 17702-17711 (1995), herein expressly incorporated by reference in its entirety). As the peptide number 40 eluted by 50% acetonitrile (see FIG. 9) was too long for direct sequencing, it was subjected to limited proteolysis by dispase and was sequenced from four peptides isolated by HPLC chromatography as above. […]

[5] abbreviates: SLV containing 15% PS compared to solubilized TGase 1 and soluble involucrin.

Like-named read-outs stand apart in the source and are kept apart here.

B1: TGase 1: recombinant full-length human transglutaminase 1 expressed in Sf9 cells by baculovirus, solubilized or bound to SLV (protein)
chain: MMDGPRSDVGRWGGNPLQPPTTPSPEPEPEPDGRSRRGGGRSFWARCCGCCSCRNAADDDWGPEPSDSRGRGSSSGTRRPGSRGSDSRRPVSRGSGVNAAGDGTIREGMLVVNGVDLLSSRSDQNRREHHTDEYEYDELIVRRGQPFHMLLLLSRTYESSDRITLELLIGNNPEVGKGTHVIIPVGKGGSGGWKAQVVKASGQNLNLRVHTSPNAIIGKFQFTVRTQSDAGEFQLPFDPRNEIYILFNPWCPEDIVYVDHEDWRQEYVLNESGRIYYGTEAQIGERTWNYGQFDHGVLDACLYILDRRGMPYGGRGDPVNVSRVISAMVNSLDDNGVLIGNWSGDYSRGTNPSAWVGSVEILLSYLRTGYSVPYGQCWVFAGVTTTVLRCLGLATRTVTNFNSAHDTDTSLTMDIYFDENMKPLEHLNHDSVWNFHVWNDCWMKRPDLPSGFDGWQVVDATPQETSSGIFCCGPCSVESIKNGLVYMKYDTPFIFAEVNSDKVYWQRQDDGSFKIVYVEEKAIGTLIVTKAISSNMREDITYLYKHPEGSDAERKAVETAAAHGSKPNVYANRGSAEDVAMQVEAQDAVMGQDLMVSVMLINHSSSRRTVKLHLYLSVTFYTGVSGTIFKETKKEVELAPGASDRVTMPVAYKEYRPHLVDQGAMLLNVSGHVKESGQVLAKQHTFRLRTPDLSLTLLGAAVVGQECEVQIVFKNPLPVTLTNVVFRLEGSGLQRPKILNVGDIGGNETVTLRQSFVPVRPGPRQLIASLDSPQLSQVHGVIQVDVAPAPGDGGFFSDAGGDSHLGETIPMASRGGA
As for B1, the “Ca++ concentration above which enzyme becomes active in cross-linking” value in series [1] (TGase 1 bound to SLV) is listed as “above 10 μM”; in series [1] (solution assays), “above 100 μM”. The “lowering of Ca++ concentration required for cross-linking of involucrin versus soluble enzyme and substrate” value in series [1] (membrane-bound versus soluble TGase 1) came out at 10 fold. In addition, in series [2] (SLV composed of 15% PS), the “saturating amount on SLV” value was “approximately 0.9 nmol of TGase 1/μmol of lipid”. Further, the entries for the “binding to SLVs” value in series [2] (TGase 1 purified by the NH2OH—HCl method (S-acyl adducts hydrolysed)) and in series [2] (TGase 1 purified from Triton X-100 extracts (lipid adducts retained)) were “unable to bind to SLVs” and “spontaneously associates with SLVs”, respectively.

B2: Involucrin: recombinant purified human involucrin expressed in E. coli (protein)
chain: MSQQHTLPVTLSPALSQELLKTVPPPVNTHQEQMKQPTPLPPPCQKVPVELPVEVPSKQEEKHMTAVKGLPEQECEQQQKEPQEQELQQQHWEQHEEYQKAENPEQQLKQEKTQRDQQLNKQLEEEKKLLDQQLDQELVKRDEQLGMKKEQLLELPEQQEGHLKHLEQQEGQLKHPEQQEGQLELPEQQEGQLELPEQQEGQLELPEQQEGQLELPEQQEGQLELPEQQEGQLELPQQQEGQLELSEQQEGQLELSEQQEGQLKHLEHQEGQLEVPEEQMGQLKYLEQQEGQLKHLDQQEKQPELPEQQMGQLKHLEQQEGQPKHLEQQEGQLEQLEEQEGQLKHLEQQEGQLEHLEHQEGQLGLPEQQVLQLKQLEKQQGQPKHLEEEEGQLKHLVQQEGQLKHLVQQEGQLEQQERQVEHLEQQVGQLKHLEEQEGQLKHLEQQQGQLEVPEQQVGQPKNLEQEEKQLELPEQQEGQVKHLEKQEAQLELPEQQVGQPKHLEQQEKHLEHPEQQDGQLKHLEQQEGQLKDLEQQKGQLEQPVFAPAPGQVQDIQPALPTKGEVLLPVEHQQQKQEVQWPPKHK
The term Km denotes the substrate concentration at which the rate is half of its maximum. By Vmax is commonly meant the top rate of the reaction or transport when substrate is in excess. B2: in series [3] (setting [5]), the “decrease of KM” value is “approximately 40 fold” and the “decrease of kcat value” is 200 fold. For the same molecule, the “kinetic parameters as a substrate” value in series [3] (SLV formulated in the absence of PS) is given as “immeasurably low”. In series [3] (SLV-bound TGase 1 (15% PS)), the Km is 2.9 ± 0.4 µM, the Vmax is 2.4 ± 0.4 pmol/min and the “kcat(putrescine)” value worked out at 0.0425 s⁻¹. Also, in series [3] (Solubilized TGase 1, 0.94 pmol), the maximum rate (Vmax) is 482 ± 37 pmol/min and the “kcat(putrescine)” value stood at 8.55 s⁻¹. For the same molecule, the Michaelis-Menten constant (Km) in series [3] (Solubilized TGase 1) came out at 114 ± 19 µM. The putrescine incorporated entry in series [4] (membrane-bound TGase 1 (Sf9 particulate membranes or SLV with 15% PS)) is “approximately 1 mol of putrescine/mol of invol”. Also, the putrescine incorporated entry in series [4] (solubilized recombinant TGase 1, no membranes or SLV, 20 mM putrescine, 4 h, 37° C.) is recorded as “about 20 mol of putrescine incorporated/mol of involucrin”. In series [2] (SLV containing 12-18% phosphatidylserine), the “Ca++ concentration above which binding to SLV occurs” value is listed as “above 1 μM”. Besides, in series [2] (SLVs containing 15-30% PS), the “amount saturating SLV” value is recorded as 0.43±0.02 nmol involucrin/μmol lipid. For the same molecule, in series [2] (SLVs containing 15 mol % PS), the “free Ca++ concentration at which binding to SLVs was first detected” value is given as 1 :M. Further, in series [2] (SLVs containing 15 mol % PS, saturating involucrin), the “free Ca++ concentration for maximal binding to SLVs” value was above 20 µM.
